The values that follow come from patent US20240301086A1 (APTEVO RESEARCH AND DEVELOPMENT, published 2024).

This experiment has as its target T1, mIgG Fc-cyno PSMA ECD (cynomolgus monkey).
T1 construct: Called PSMA dimer in the SPR method; also called mFc-Cyno PSMA ECD; murine Fc-tagged cyno PSMA ECD
T1 chain: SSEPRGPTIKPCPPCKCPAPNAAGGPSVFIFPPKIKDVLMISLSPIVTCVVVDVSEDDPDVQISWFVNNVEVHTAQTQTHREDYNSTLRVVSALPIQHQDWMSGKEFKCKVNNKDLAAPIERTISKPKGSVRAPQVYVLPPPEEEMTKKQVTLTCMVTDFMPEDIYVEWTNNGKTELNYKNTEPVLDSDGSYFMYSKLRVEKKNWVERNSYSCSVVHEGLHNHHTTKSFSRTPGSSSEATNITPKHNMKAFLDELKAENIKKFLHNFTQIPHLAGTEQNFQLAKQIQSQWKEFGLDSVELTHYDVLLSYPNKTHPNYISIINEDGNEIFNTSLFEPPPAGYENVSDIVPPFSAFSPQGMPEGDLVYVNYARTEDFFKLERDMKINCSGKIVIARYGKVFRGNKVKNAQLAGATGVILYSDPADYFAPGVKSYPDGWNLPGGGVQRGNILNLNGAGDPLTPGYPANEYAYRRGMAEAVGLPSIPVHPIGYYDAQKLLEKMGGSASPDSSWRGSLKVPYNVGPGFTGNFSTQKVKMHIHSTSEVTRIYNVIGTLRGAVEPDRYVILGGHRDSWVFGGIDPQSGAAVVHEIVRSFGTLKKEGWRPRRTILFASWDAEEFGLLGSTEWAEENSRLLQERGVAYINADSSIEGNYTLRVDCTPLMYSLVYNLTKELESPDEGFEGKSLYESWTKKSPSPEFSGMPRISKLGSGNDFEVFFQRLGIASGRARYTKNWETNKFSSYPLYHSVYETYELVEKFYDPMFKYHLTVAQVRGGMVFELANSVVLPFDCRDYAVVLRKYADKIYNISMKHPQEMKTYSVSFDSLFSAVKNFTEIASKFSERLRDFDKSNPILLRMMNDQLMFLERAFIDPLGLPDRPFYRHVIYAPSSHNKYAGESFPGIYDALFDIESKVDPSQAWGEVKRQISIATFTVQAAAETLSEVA
The experiment in a line: SPR (Biacore T200), bispecific amine-coupled, mFc-PSMA dimer 1-81 nM as analyte, 1:1 fit. The method, then: SPR studies were performed on a subset of bispecific constructs binding to Human and cynomolgus primate PSMA ectodomain (ECD) fused to the c-terminus of a murine IgG1 Fc region. These experiments were conducted at 25° C. in dPBS (Gibco, 14040-133) with 0.2% BSA buffer on a Biacore T200 system. Bispecific constructs were immobilized at a density of ˜2,000-4,000 response units (RU) onto individual flow cells of a CM5 research-grade sensor chip (GE) by standard amine coupling chemistry, leaving one flow cell surface unmodified as the reference. Using a multi-cycle kinetics mode, a buffer blank and […] different concentrations of the PSMA dimer ranging from 1 nM to 81 nM in dPBS with 0.2% BSA were sequentially injected through each flow cell at 30 μL/min for 300 seconds followed by a 600 second dissociation phase. Regeneration was achieved by injection of 10 mM glycine pH 2.0 at a flow rate of 30 μL/min for 40 seconds followed by dPBS with 0.2% BSA buffer stabilization for 1 min.
Sensorgrams obtained from kinetic SPR measurements were analyzed by the double subtraction method. The signal from the reference flow cell was subtracted from the analyte binding response obtained from flow cells with captured ligands. The buffer blank response was then subtracted from analyte binding responses and the final double-referenced data were analyzed with Biacore T200 Evaluation software (2.0, GE), globally fitting data to derive kinetic parameters. All sensorgrams were fitted using a simple one-to-one binding model.
(In general: SPR reads the build-up and loss of mass on a sensor chip optically.)

B1: PSMA01107 Anti-PSMA scFv x Fc x linker x Anti CD3 scFv; Anti PSMA scFv x Fc (bispecific antibody)
chain 1: QVQLVQSGAEVKKPGASVKVSCKASGYTFTDYYMHWVRQAPGQGLEWMGYFNPYNDYTRYAQKFQGRVTMTRDTSTSTVYMELSSLRSEDTAVYYCARSDGYYDAMDYWGQGTTVTVSSGGGGSGGGGSGGGGSGGGGSDIQMTQSPSSLSASVGDRVTITCRASKSISKYLAWYQQKPGKAPKLLIHSGSSLESGVPSRFSGSGSGTEFTLTISSLQPDDFATYYCQQHIEYPWTFGQGTKVEIKEPKSSDKTHTCPPCPAPPAAAPSVFLFPPKPKDTLMISRTPEVTCVVVDVSHEDPEVKFNWYVDGVEVHNAKTKPREEQYNSTYRVVSVLTVLHQDWLNGKEYKCAVSNKALPAPIEKTISKAKGQPREPQVYTLPPSRDELTKNQVSLWCLVKGFYPSDIAVEWESNGQPENNYKTTPPVLDSDGSFFLYSKLTVDKSRWQQGNVFSCSVMHEALHNHYTQKSLSLSPGGGGSPSQVQLVQSGAEVKKPGASVKVSCKASGYTFTRSTMHWVRQAPGQGLEWIGYINPSSAYTNYAQKFQGRVTLTADKSTSTAYMELSSLRSEDTAVYYCASPQVHYDYNGFPYWGQGTLVTVSSGGGGSGGGGSGGGGSGGGGSDIQMTQSPSSLSASVGDRVTITCRASSSVSYMNWYQQKPGKAPKRWIYDSSKLASGVPSRFSGSGSGTDFTLTISSLQPEDFATYYCQQWSRNPPTFGQGTKVEIKRS
chain 2: QVQLVQSGAEVKKPGASVKVSCKASGYTFTDYYMHWVRQAPGQGLEWMGYFNPYNDYTRYAQKFQGRVTMTRDTSTSTVYMELSSLRSEDTAVYYCARSDGYYDAMDYWGQGTTVTVSSGGGGSGGGGSGGGGSGGGGSDIQMTQSPSSLSASVGDRVTITCRASKSISKYLAWYQQKPGKAPKLLIHSGSSLESGVPSRFSGSGSGTEFTLTISSLQPDDFATYYCQQHIEYPWTFGQGTKVEIKEPKSSDKTHTCPPCPAPPAAAPSVFLFPPKPKDTLMISRTPEVTCVVVDVSHEDPEVKFNWYVDGVEVHNAKTKPREEQYNSTYRVVSVLTVLHQDWLNGKEYKCAVSNKALPAPIEKTISKAKGQPREPQVYTLPPSRDELTKNQVSLSCAVKGFYPSDIAVEWESNGQPENNYKTTPPVLDSDGSFFLVSKLTVDKSRWQQGNVFSCSVMHEALHNHYTQKSLSLSPG
notes: Heterodimer, bivalent for PSMA and monovalent for CD3 (VH-VL scFv at the C-terminus); also called PSMA1107
For orientation: Kd means the constant that tells how readily two partners part at equilibrium. Read a low Kd as tighter binding. The molecule B1 returned a Kd of 4.4 nM. This counts as single-digit nanomolar.
